In the supplement of paper PMC11908140:

B1: library; numbered along this chain (parent)
chain: MRKPRAAVGSGHRKQAASQEGRQKHAKNNSQAKPSACDGLARQPEEVVLQASVSSYHLFRDVAEVTAFRGSLLSWYDQEKRDLPWRRRAEDEMDLDRRAYAVWVSEVMLQQTQVATVINYYTGWMQKWPTLQDLASASLEEVNQLWAGLGYYSRGRRLQEGARKVVEELGGHMPRTAETLQQLLPGVGRYTAGAIASIAFGQATGVVDGNVARVLCRVRAIGADPSSTLVSQQLWGLAQQLVDPARPGDFNQAAMELGATVCTPQRPLCSQCPVESLCRARQRVEQEQLLASGSLSGSPDVEECAPNTGQCHLCLPPSEPWDQTLGVVNFPRKASRKPPREESSATCVLEQPGALGAQILLVQRPNSGLLAGLWEFPSVTWEPSEQLQRKALLQELQRWAGPLPATHLRHLGEVVHTFSHIKLTYQVYGLALEGQTPVTTVPPGARWLTQEEFHTAAVSTAMKKVFRVYQGQQPGTCMGSKRSQVSSPCSRKKPRMGQQVLDNFFRSHISTDAHSLNSAAQ

Variants of: B1
Assay: 8OG:A repair function score (normalized; synonymous = 0, nonsense = -1) (normalized log-likelihood score); higher = more repair activity (WT-like)
Conditions: with 8OG:A DNA repair reporter (GFP) in HEK-293 MUTYH KO cells
How it was run: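 After 72 h, viable mCherry+ cells were split into GFP+ (repair) and GFP− bins in three replicates per tile. These cells were MUTYH knockout HEK-293 cells holding lentiviral MUTYH cDNA NNN codon-scan libraries, kept in 10 pg/ml doxycycline and co-transfected with mCherry plus an 8OG:A GFP repair reporter. Sequencing of tile amplicons gave per-tile Rosace fitness scores, normalized into a repair function score anchored on synonymous and nonsense distributions. Synonymous medians were fixed at 0, nonsense at -1, and variants under 300 counts per million at the start were removed.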
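Note: cells sorted at 72 h after reporter transfection.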

8OG:A repair function score, by site and new letter:
C216: W -1, N -0.84, L -0.469, T -0.335, F -0.905, K -0.969, R -0.931, P -0.98, H -0.687, D -0.949, E -0.808, M -0.646, I -0.57, V -0.649, S -0.137, G -0.663, Q -0.579, Y -0.886, A -0.252
G205: D -0.933, M -0.711, H -0.8, S -0.352, E -0.592, I -0.994, W -0.894, L -1.03, C -0.378, Y -0.873, N -0.947, V -0.876, K -0.961, A -0.145, Q -0.764, F -0.891, P 0.0348, R -0.953, T -0.773
T204: C 0.0932, Q -0.045, D -0.103, A -0.0766, F -0.0751, R -0.0298, G -0.452, K 0.0186, Y -0.127, I 0.0296, S -0.127, W -0.109, N -0.117, M -0.111, V 0.0534, H -0.234, E 0.00943, P -0.903, L -0.0721
V211: M -0.251, T -0.428, D -0.988, R -1.02, H -0.617, Y -0.329, W -0.594, P -1.02, G -0.791, N -0.806, K -1, I -0.0557, Q -0.837, S -0.531, F -0.4, E -0.951, A -0.477, L -0.586, C -0.265
V218: C -0.211, D -0.983, A -0.268
Q202: C 0.0136, D 0.0238, W -0.586, N -0.274, A 0.00201, K 0.0342, P -0.931, T -0.198, M -0.234, G -0.395, S -0.0817, V -0.0323, L -0.163, E -0.0729, Y -0.329, R -0.0857, I -0.0774, H -0.0825, F -0.471
D208: L -1.03, C -1.02, E -0.991, W -1.02, T -1.03, F -1.04, A -1.04, S -0.987, G -1, V -0.996, I -1.02, P -1.04, N -0.984, R -1.03, H -1.01, Y -1.01, K -0.994, M -0.974, Q -1.01
G201: A -0.14, D -0.0211, Y -0.227, C -0.103, T -0.23, S -0.0385, N 0.0301, P -1.06, V -0.331, R -0.0601, I -0.543, H 0.0082, E -0.32, M -0.244, K 0.012, W -0.353, Q 0.039, F -0.266, L -0.298
V206: A -0.219, E -1.01, W -1.03, Q -0.927, G -0.835, S -0.585, T -0.338, R -1.01, P -0.905, I -0.0438, F -0.894, L -0.338, C -0.0127, K -1.01, M -0.563, N -0.923, D -1.02, H -1.02, Y -1.01
F200: R -0.97, T -0.739, W -0.182, S -0.54, P -1.02, Q -0.502, N -0.427, Y 0.0681, V -0.545
R217: Y -1.01, A -1.02, N -1.04, Q -1.03, H -0.835, F -1.04, V -1.01, I -1.03, S -1.03, M -0.936, E -1.03, G -1.01, C -1.03, P -1.04, T -1.02, W -0.993, L -1.01, D -1.02, K -1.03
V214: E -0.927, F -0.287, I -0.231, Y -0.782, M -0.207, S -0.707, H -0.795, G -0.9, R -1.01, D -1.02, P -1.01, T -0.495, N -0.833, L -0.0688, A -0.504, Q -0.911, C -0.56, W -0.258, K -0.957
V207: P -1.01, A -0.78, F -0.875, E -1.03, S -0.875, M -0.495, N -0.883, D -0.986, R -0.947, K -0.909, G -1.03, I -0.363, H -0.941, W -0.834, L -0.375, Q -0.868, C -0.542, T -0.785, Y -0.858
A203: L -0.0917, F -0.255, M -0.0505, W -0.183, R 0.00374, S -0.0724, V 0.0414, P 0.109, H 0.0237, Q 0.0356, E -0.0816, Y -0.245, N -0.000873, D -0.191, C -0.101, I 0.0319, G -0.165, K 0.0825, T 0.03
A212: S -0.131, W -0.596, C -0.00168, F -0.426, V -0.0975, L -0.264, E 0.196, T -0.0386, Y -0.62, H -0.341, P -0.961, K -0.0378, I -0.333, D -0.814, Q -0.0874, M -0.344, N -0.24, G -0.254, R 0.0203
L215: D -0.968, V -0.573, P -1.03, K -1.02, E -0.98, N -0.967, S -0.957, R -1.02, H -0.901, Q -0.871, I -0.331, T -0.86, F -0.325, Y -0.0538, M -0.129, C -0.768, A -0.788, G -0.867, W -0.704
G209: T -0.207, F -0.839, I -0.359, R -0.364, S 0.0281, N 0.0546, E -0.837, A -0.0943, V -0.00522, Y -0.757, P -0.887, L -0.534, D -0.851, C 0.162, W -0.876, H -0.659, Q -0.48, K -0.788
N210: Q -0.95, E -0.997, T -1.03, M -0.923, R -1.03, W -1.01, A -0.876, C -0.854, F -1, V -0.927, D -1.03, S -1.03, I -1, Y -1, P -0.658, H -0.833, K -1.04, G -0.962, L -0.937
R213: I -0.997, W -1, H -1.03, P -1.03, T -1.01, K -1, F -1.01, Q -1.02, M -1.04, N -0.963, D -1.01, V -1.01, S -1.01, E -1.03, G -1.01, L -1.01, A -1.02, Y -0.997, C -1.03
